Experimental findings from patent EP4778940A1 (Artivila (ShenZhen) Innovation Center, Ltd., dated 2026) are described below.

Test [1] deals with T1, human HHLA2 on cells (K562-hHHLA2; HCC827) (human, UniProt Q9UM44 23-414).
T1 construct: whole, on cells; also called K562 cells overexpressing human HHLA2; HCC827 cell line highly expressing human HHLA2
T1 sequence (looked up): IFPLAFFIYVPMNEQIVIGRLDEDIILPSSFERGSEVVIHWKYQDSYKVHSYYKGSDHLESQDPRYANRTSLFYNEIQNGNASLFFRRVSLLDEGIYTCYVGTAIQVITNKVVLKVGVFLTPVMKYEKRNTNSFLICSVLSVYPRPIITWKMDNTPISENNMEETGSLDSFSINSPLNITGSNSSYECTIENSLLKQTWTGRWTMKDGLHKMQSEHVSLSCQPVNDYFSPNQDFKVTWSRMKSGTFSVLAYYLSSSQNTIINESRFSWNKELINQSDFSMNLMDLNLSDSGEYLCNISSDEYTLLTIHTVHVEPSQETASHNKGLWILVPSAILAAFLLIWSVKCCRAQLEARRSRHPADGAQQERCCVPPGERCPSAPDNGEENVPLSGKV
Put plainly: flow cytometry on K562-hHHLA2 cells. In general terms: A flow cytometer gives signals particle by particle.

Test [2] concerns the target T2, human HHLA2 proteins (Acro Biosystems, B77-H52H5) (human, UniProt Q9UM44 23-344).
T2 construct: Bought recombinant protein coated on the ELISA plate; also called B7-H7; B7y
T2 sequence (looked up): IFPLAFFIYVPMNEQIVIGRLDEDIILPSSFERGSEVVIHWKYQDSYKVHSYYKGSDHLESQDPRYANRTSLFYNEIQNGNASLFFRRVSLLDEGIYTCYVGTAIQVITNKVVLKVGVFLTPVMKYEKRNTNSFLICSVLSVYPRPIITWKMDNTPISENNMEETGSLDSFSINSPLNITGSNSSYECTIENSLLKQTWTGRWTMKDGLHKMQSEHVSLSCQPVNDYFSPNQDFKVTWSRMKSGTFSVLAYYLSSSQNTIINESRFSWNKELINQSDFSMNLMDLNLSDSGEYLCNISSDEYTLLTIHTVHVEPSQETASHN
Nature of the test: ELISA, human HHLA2 protein coated.

Test [3] concerns the target T1, human HHLA2 on cells (K562-hHHLA2; …). Put plainly: cell-based or functional assay.
Test [4] shares this target. Put plainly: flow cytometry on HCC827 tumor cells highly expressing human HHLA2.

B1: Ab01-84M2 (antibody, V domains shown)
VH: DVQLQESGGGLVQAGGSLRLSCAASGFPFDDYSIGWFRQAPGKAREGISCISSTHGTTYYTDSVKDRFTITRDNAKNTVYLQMNNLKPEDAAVYYCAAGLDGLACHRRDSGSRYRTQLYDYWGQGTQVTVSS
Turning to B1, the binding result in test [1] and in test [2] was “binds” in each case.

B2: Ab01-7M2 (antibody, V domains shown)
VH: DVQLQESGGGLVQPGGSLRLSCAASGFTFSSTPMYWYRQAPGKERDFVAIMAPGGYEDIADSVRGRFSISRDNGNNTMYLQMNSLKPEDTALYYCRALNSWGQGTQVTVSS
For B2, the binding result in test [1] and in test [2] was “binds” in each case.

B3: Ab01-91M2 (antibody, V domains shown)
VH: DVQLQESGGGLVQPGGSLRLSCAASGFTFSNYLMGWYRQAPGKERELVAAINSAGYSTVYAESVKGRFTTSRDNAKSMVYLQMNSLKAEDTAVYYCNARYDRWHDYWGQGTQVTVSS
Regarding B3, the binding result in test [1] and in test [2] was “binds” in each case.

B4: Ab01-63M2 (antibody, V domains shown)
VH: DVQLQESGGGLVQPGGSLRLSCAASGFTLDYYVIGWFRQAPGKEREGVSCISSSDGSTYSADSVKGRFTISRDNAENTVYLQMNSLKPEDTAVYYCAARRSPGIEGWCALPFFFGSWGQGTQVTVSS
notes: also called candidate parental antibody Ab01-63M2
On to B4, for which the “EC50 (nM), promoting the killing effects of NK92MI on target cells (K562 overexpressing human HHLA2)” value in test [3] was 0.125 nM. Further, in test [4], it took 43 pM to reach a half-maximal effect (EC50).

B5: Ab01-63Ghm25 (antibody, V domains shown)
VH: EVQLLESGGGLVQPGGSLRLSCAASGFTLDYYVIGWFRQAPGKEREGVSCISSSTGSTYSADSVKGRFTISRDTSKNTVYLQMNSLRAEDTAVYYCAARRSPGIEGWCALPFFFGSWGQGTLVTVSS
notes: Humanized or engineered mutant of Ab01-63G4; also called mutant Ab01-63Ghm25
For the molecule B5, the binding result in test [2] was “binds”.

B6: Ab01-63Ghm28 (antibody, V domains shown)
VH: EVQLLESGGGLVQPGGSLRLSCAASGFTLDYYVIGWFRQAPGKEREGVSCISSSTGSTYSADSVKGRFTISRDTSKNTVYLQMNSLRAEDTAVYYCAARRSPGIEGWCALPEFFGSWGQGTLVTVSS
notes: Humanized or engineered mutant of Ab01-63G4; also called mutant Ab01-63Ghm28
Turning to B6, in test [2], the binding result is on record as “binds”.

B7: Ab01-63Ghm26 (antibody, V domains shown)
VH: EVQLLESGGGLVQPGGSLRLSCAASGFTLDYYVIGWFRQAPGKEREGVSCISSSTGSTYSAQSVKGRFTISRDTSKNTVYLQMNSLRAEDTAVYYCAARRSPGIEGWCALPFFFGSWGQGTLVTVSS
notes: Humanized or engineered mutant of Ab01-63G4; also called mutant Ab01-63Ghm26
Consider B7, for which the binding result in test [2] is reported as “binds”.

B8: Ab01-121M1 (antibody, V domains shown)
VH: DVQLQESGGGLVQPGGSLRLSCAASGSRFSFNVMGWHRQAPGKQRELVALISSGGTANYADSVKGRFTISRDNAGNTMYLQMNTLKPEDTAVYYCTATTPVGQYWGQGTQVTVSS
B8: the binding result in test [1] and in test [2] was “binds” throughout.

B9: Ab01-110M1 (antibody, V domains shown)
VH: DVQLQESGGGLVQTGGSLRLSCAAPGFTLDDYAIGWFRQAPGKERERISCITSSTNRTYYANSVKGRFTISRDSAKNTVYLQMNSLKPEDTAVYYCAAEPILCVLWSAGGAMDYWGKGTQVTVSS
With B9, the binding result in test [1] and in test [2] was “binds” in each case.

B10: Ab01-122M1 (antibody, V domains shown)
VH: DVQLQESGGGLVQPGGSLKLSCTASRRIFTFTAAGWYRQAPGQQREFVAVIANGGHTNYADSVKGRFTISRDNAKNTVYLQMNSLKPEDTAVYYCNTPPAFGSWGPGTQVTVSS
Consider B10, for which the binding result in test [1] and in test [2] was “binds” throughout.

B11: Ab01-126M1 (antibody, V domains shown)
VH: DVQLQESGGGLVQPGGSLRLSCTASTRIFTFSAAGWYRQAPGKQREFVAVITGGGHTNYADSVKGRFTISRDNAKDTVYLQMNSLKPEDTAVYYCNTPPAFGSWGPGTQVTVSS
With B11, the binding result in test [1] and in test [2] was “binds” throughout.

B12: positive control antibody 2C4 (antibody, V domains shown)
VH: EVHLQQSGPELEKPGVSVKISCKASGFSFTDYNMNWVKQSSGKSLEWIGNIDPYYGRINYNQKFKGKATLSVDKSSSTAYMHLKSLTSEDSAVYYCATGAYTSGYSWFAYWGQGTLVTVSS
VL: ENVLTQSPGIMAASLGEKVTMTCSASSSVSSSYLHWYQQRSGASPKPLIHRTSNLASGVPARFSGSGSGTSYSLTISSVEAEDDATYYCQQWSGYPFTFGSGTKLEIK
notes: also called positive control 2C4; positive antibody
For B12, the “EC50 (nM), promoting the killing effects of NK92MI on target cells (K562 overexpressing human HHLA2)” value in test [3] stood at 0.192 nM. Further, the response in test [4] was half-maximal at 281 pM (EC50).
